Reference: patent US20100204147A1, “Methods For Delivering Thymosin Beta 4, Analogues, Isoforms and Other Derivatives” (REGENERX BIOPHARMACEUTICALS, INC., priority 2003, published 2010)

Target: T1, fibrin (Homo sapiens, UniProt P02671)
T1 construct: purchased Enzyme Research Laboratories (South Bend, Ind.); host or cells: fibrin generated in the well or tube from the purchased fibrinogen with bovine thrombin
T1 sequence (P02671 36-629): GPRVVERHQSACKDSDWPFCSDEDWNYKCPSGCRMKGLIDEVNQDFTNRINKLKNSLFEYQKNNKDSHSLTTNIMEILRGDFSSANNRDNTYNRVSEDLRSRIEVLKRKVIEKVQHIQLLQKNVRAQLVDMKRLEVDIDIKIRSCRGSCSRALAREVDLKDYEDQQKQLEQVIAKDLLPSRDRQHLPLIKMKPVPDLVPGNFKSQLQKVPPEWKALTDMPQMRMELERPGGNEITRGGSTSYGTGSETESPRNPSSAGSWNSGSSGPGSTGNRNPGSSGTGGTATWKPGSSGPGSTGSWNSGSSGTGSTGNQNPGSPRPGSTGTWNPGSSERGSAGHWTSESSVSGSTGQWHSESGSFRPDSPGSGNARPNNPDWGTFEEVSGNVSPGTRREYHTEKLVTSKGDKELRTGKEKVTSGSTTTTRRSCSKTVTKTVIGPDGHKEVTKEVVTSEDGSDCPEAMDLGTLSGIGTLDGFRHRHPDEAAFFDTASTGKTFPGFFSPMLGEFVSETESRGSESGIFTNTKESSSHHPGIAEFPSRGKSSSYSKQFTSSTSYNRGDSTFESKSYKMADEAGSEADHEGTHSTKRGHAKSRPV
T1 sequence (P02675 45-491 partner): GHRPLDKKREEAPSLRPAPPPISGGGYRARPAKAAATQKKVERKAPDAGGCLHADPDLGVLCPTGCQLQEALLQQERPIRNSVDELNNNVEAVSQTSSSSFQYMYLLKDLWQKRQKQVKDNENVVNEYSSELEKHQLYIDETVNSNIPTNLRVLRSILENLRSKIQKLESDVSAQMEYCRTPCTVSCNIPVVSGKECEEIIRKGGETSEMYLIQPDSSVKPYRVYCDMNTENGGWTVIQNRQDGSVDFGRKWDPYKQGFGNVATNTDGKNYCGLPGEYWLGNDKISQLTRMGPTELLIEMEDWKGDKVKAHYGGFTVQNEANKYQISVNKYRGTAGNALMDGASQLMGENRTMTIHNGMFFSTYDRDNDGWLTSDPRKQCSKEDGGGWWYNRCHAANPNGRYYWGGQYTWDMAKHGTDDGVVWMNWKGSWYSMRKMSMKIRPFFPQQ
T1 sequence (P02679 27-437 isoform P02679-2 partner): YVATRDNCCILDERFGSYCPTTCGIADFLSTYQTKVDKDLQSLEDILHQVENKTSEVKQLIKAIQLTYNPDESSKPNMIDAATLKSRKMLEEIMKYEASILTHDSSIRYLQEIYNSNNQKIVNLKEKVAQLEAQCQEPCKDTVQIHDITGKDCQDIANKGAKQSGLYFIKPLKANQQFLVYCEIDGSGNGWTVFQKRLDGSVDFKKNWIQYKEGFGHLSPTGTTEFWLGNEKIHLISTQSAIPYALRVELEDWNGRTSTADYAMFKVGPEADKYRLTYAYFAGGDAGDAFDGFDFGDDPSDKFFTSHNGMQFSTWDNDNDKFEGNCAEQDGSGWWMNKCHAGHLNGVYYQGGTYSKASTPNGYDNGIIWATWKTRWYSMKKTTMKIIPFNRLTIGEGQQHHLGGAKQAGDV
Assay: Western blot time course of factor XIIIa-mediated incorporation into fibrin
Type: biochemical
Conditions: mixture of thrombin, factor XIII, thymosin β4 and fibrin; immunoblotting
Procedure: Reactions of incorporation of FITC-labeled and unlabeled thymosin β4 into fibrinogen and fibrin were performed in Eppendorf tubes containing a mixture of fibrinogen at 3 mg/mL (9 μM) and thymosin β4 or FITC-labeled thymosin β4 at […] (30 μM) in 100 μL TBS with 2.5 mM CaCl2. The reactions were initiated by addition of FXIIIa(Ca) or FXIIIa(Thr) to final concentration of 30 μg/mL. The final concentration of thrombin in the FXIIIa(Thr)-containing mixtures was made at 2.5 NIH u/mL, sufficient to rapidly form fibrin clot which was observed visually. The reactions with FITC-labeled thymosin β4 lasted for 4 hours at 37° C. in the dark and were stopped by heat inactiviation of the enzymes in boiling water for 5 min during fibrinogen and fibrin denatured and precipitated. The pellets were centrifuged and washed 3 times in TBS and then solubilized. The amounts of fibrin(ogen) and FITC-labeled thymosin β4 in the solubilized pellet were determined spectrophotomertrically using absorption molar coefficients E280,1%=15.0 and ε495=72,000 M^−1cm^−1, respectively. […]
Detection of thymosin β4 incorporated into fibrin(ogen) and its fragments was performed as follows. […] The membrane was blocked with a casein blocker for 1 hour and thymosin β4 was detected by the reaction with rabbit anti-thymosin β4 serum and peroxidase-conjugated anti-rabbit IgG. […]

thymosin β4
time at which the amount of incorporated (cross-linked) thymosin β4 reaches saturation: 4 h
